Reference: patent US20230212549A1 (3B PHARMACEUTICALS, published 2023)
Numbered stars: 1 amine (or outer) side, 2 acyl side, 3 side chain; on linkers, the order of the positions; unused ones are H or OH. Bridge positions count the residues as written; N and C are the ends. Square brackets hold non-standard residues; d marks the D form. Primed or numbered codes have the meaning given here. * marks the point of attachment. tMeBn(DOTA-PP) = 1,3,5-trimethylbenzylidene, two thioethers to Cys, third CH2 bound to one N of piperazine whose other N bears DOTA, O=C(O)CN1CCN(CC(=O)O)CCN(CC(=O)N2CCN(Cc3cc(C[*:1])cc(C[*:2])c3)CC2)CCN(CC(=O)O)CC1; Ttds″ = 1,13-diamino-4,7,10-trioxatridecan-succinamic acid spacer, O=C(CCC(=O)[*:2])NCCCOCCOCCOCCCN[*:1]; Ttds = 1,13-diamino-4,7,10-trioxatridecan-succinamic acid, O=C(CCC(=O)[*:2])NCCCOCCOCCOCCCN[*:1]; 3MeBn = 3-Methylbenzylidene (m-xylylene thioether bridge from α,α′-dibromo-m-xylene); N4Ac = 6-Carboxy-1,4,8,11-tetraazaundecane, an N4-chelator, NCCNCC(CNCCN)C(=O)*; DOTA = O=C(O)CN1CCN(CC(=O)O)CCN(CC(=O)*)CCN(CC(=O)O)CC1; γGlu = O=C(O)[C@H](CCC(=O)[*:2])N[*:1]; mXylylene = c1cc(C[*:1])cc(C[*:2])c1; 4Amb = NCc1ccc(C(=O)O)cc1; Nle = CCCC[C@H](N)C(=O)O; Hexanoyl = CCCCCC(=O)*

T1: recombinant human PREP (R&D systems, #4308-SE) (human, UniProt P48147 1-710)
T1 sequence: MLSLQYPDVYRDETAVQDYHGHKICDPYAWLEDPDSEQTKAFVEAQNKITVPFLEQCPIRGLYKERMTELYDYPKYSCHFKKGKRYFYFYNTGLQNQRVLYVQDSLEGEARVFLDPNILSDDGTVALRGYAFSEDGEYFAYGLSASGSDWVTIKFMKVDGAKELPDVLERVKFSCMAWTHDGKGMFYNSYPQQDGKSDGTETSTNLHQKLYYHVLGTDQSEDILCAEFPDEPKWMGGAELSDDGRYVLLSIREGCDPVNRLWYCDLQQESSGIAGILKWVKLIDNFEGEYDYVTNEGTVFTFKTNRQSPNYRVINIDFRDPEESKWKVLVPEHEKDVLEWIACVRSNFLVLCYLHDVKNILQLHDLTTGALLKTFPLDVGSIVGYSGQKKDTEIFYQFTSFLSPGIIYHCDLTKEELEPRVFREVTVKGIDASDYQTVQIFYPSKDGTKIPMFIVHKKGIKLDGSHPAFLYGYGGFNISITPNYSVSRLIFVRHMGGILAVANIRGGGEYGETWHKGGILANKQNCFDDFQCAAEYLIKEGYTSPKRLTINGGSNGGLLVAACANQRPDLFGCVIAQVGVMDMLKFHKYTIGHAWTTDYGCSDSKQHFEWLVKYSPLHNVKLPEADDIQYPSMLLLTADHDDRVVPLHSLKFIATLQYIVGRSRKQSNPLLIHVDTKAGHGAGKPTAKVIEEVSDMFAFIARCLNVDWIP


How the values were obtained:
[1] = molecular target: T2, Recombinant human FAP (R&D systems, #3715-SE) (human, UniProt Q12884 26-760); assay: cell-based or functional assay
[2] = molecular target: T3, human fibroblast activation protein (FAP) on WI-38 fibroblasts (human, UniProt Q12884 1-760); assay: competitive FACS, WI-38 cells, Cy5-labeled peptide as competitor; B = pIC50 7.1 to 8.0
T3 construct: FAP-expressing human WI-38 fibroblasts (ECACC)

[3] = molecular target: T2, Recombinant human FAP (R&D systems, …); assay: SPR (Biacore T200), FAP captured on anti-FAP antibody, single cycle kinetics
[4] = molecular target: T1, recombinant human PREP (R&D systems, …); assay: cell-based or functional assay
[5] = molecular target: Recombinant human DPP4 (R&D systems, #9168-SE) (human, UniProt P27487 29-766); assay: cell-based or functional assay
Chain of Recombinant human DPP4 (R&D systems, #9168-SE) (P27487 29-766 limits assumed): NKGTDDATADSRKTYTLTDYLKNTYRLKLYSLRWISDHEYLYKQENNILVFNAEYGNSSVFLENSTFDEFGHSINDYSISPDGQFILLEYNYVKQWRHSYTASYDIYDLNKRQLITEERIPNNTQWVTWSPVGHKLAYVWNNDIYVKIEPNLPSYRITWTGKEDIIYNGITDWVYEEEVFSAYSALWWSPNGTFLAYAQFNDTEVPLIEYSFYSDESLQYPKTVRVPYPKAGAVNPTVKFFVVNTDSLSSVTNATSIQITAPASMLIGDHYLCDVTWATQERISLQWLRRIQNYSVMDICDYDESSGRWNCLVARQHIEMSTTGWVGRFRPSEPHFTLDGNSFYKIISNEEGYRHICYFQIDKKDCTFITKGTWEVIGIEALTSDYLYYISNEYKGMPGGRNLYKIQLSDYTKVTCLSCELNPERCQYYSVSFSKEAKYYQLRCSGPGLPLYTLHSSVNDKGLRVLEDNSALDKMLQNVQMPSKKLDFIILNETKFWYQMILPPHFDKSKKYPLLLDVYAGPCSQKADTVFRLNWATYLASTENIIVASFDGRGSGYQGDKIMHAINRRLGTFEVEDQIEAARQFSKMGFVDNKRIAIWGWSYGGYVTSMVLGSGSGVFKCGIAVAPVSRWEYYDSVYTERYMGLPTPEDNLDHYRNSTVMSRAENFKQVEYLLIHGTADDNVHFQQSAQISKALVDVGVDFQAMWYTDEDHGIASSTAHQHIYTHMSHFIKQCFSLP

Binder	pIC50 Category (Activity) [1] [pIC50]	pIC50 [2] [pic50]	pKD Category [3] [pKD]	pIC50 (PREP) [4] [pIC50]	pIC50 (DPP4) [5] [pIC50]
Hexanoyl-CPPTQFCD-NH2 (linker 1-7 via tMeBn(H-AET), also called 3BP-3981) [Hex-[Cys-(tMeBn(H-AET))-Pro-Pro-Thr-Gln-Phe-Cys]-Asp-NH2]	> 8	7.1 to 8	–	–	–
N4Ac-E[Ttds″][Nle]CPPTEFC-OH (linker 4-10 via 3MeBn, also called 3BP-4222) [N4Ac-Glu-Ttds-Nle-[Cys-(3MeBn)-Pro-Pro-Thr-Glu-Phe-Cys]-OH]	–	7.1 to 8	> 8	–	–
Hexanoyl-CPPTQFCD-NH2 (linker 1-7 via tMeBn(DOTA-PP); SMILES CCCCCC(=O)N[C@H]1CSCc2cc(cc(CN3CCN(C(=O)CN4CCN(CC(=O)O)CCN(CC(=O)O)CCN(CC(=O)O)CC4)CC3)c2)CSC[C@@H](C(=O)N[C@@H](CC(=O)O)C(N)=O)NC(=O)[C@H](Cc2ccccc2)NC(=O)[C@H](CCC(N)=O)NC(=O)[C@H]([C@@H](C)O)NC(=O)[C@@H]2CCCN2C(=O)[C@@H]2CCCN2C1=O) [Hex-[Cys(tMeBn(DOTA-PP))-Pro-Pro-Thr-Gln-Phe-Cys]-Asp-NH2]	–	–	> 8	< 6	< 6
{DOTA}-[Ttds][Nle]CPPTEFCD-NH2 (linker 3-9 via mXylylene; SMILES CCCC[C@H](NC(=O)CCC(=O)NCCCOCCOCCOCCCNC(=O)CN1CCN(CC(=O)O)CCN(CC(=O)O)CCN(CC(=O)O)CC1)C(=O)N[C@H]1CSCc2cccc(c2)CSC[C@@H](C(=O)N[C@@H](CC(=O)O)C(N)=O)NC(=O)[C@H](Cc2ccccc2)NC(=O)[C@H](CCC(=O)O)NC(=O)[C@H]([C@@H](C)O)NC(=O)[C@@H]2CCCN2C(=O)[C@@H]2CCCN2C1=O, also called 3BP-3320) [DOTA-Ttds-Nle-[Cys(3MeBn)-Pro-Pro-Thr-Glu-Phe-Cys]-Asp-NH2]	–	–	> 8	< 6	< 6
{DOTA}-[Ttds][Nle]CPPTEFCD[4Amb]R-NH2 (linker 3-9 via mXylylene; SMILES CCCC[C@H](NC(=O)CCC(=O)NCCCOCCOCCOCCCNC(=O)CN1CCN(CC(=O)O)CCN(CC(=O)O)CCN(CC(=O)O)CC1)C(=O)N[C@H]1CSCc2cccc(c2)CSC[C@@H](C(=O)N[C@@H](CC(=O)O)C(=O)NCc2ccc(C(=O)N[C@@H](CCCNC(=N)N)C(N)=O)cc2)NC(=O)[C@H](Cc2ccccc2)NC(=O)[C@H](CCC(=O)O)NC(=O)[C@H]([C@@H](C)O)NC(=O)[C@@H]2CCCN2C(=O)[C@@H]2CCCN2C1=O, also called 3BP-3321) [DOTA-Ttds-Nle-[Cys(3MeBn)-Pro-Pro-Thr-Glu-Phe-Cys]-Asp-Pamb-Arg-NH2]	–	–	> 8	< 6	< 6
Hexanoyl-CPPTQFCD-NH2 (linker 1-7 via tMeBn(DOTA-AET), also called 3BP-3426) [Hex-[Cys(tMeBn(DOTA-AET))-Pro-Pro-Thr-Gln-Phe-Cys]-Asp-NH2]	–	–	> 8	< 6	< 6
N4Ac-[γGlu][Ttds″][Nle]CPPTEFC-OH (linker 4-10 via mXylylene; SMILES CCCC[C@H](NC(=O)CCC(=O)NCCCOCCOCCOCCCNC(=O)CC[C@H](NC(=O)C(CNCCN)CNCCN)C(=O)O)C(=O)N[C@H]1CSCc2cccc(c2)CSC[C@@H](C(=O)O)NC(=O)[C@H](Cc2ccccc2)NC(=O)[C@H](CCC(=O)O)NC(=O)[C@H]([C@@H](C)O)NC(=O)[C@@H]2CCCN2C(=O)[C@@H]2CCCN2C1=O, also called 3BP-4247) [N4Ac-gGlu-Ttds-Nle-[Cys-(3MeBn)-Pro-Pro-Thr-Glu-Phe-Cys]-OH]	–	7.1 to 8	–	–	–
N4Ac-E[Ttds″][Nle]CPPTEFC-OH (linker 4-10 via 3MeBn; not fully specified (residue 1); printed as N4Ac--E(AGLU)--Ttds--Nle--[C(3MeBn)-PPTEFC]-OH, also called 3BP-4249) [N4Ac-Glu(AGLU′)-Ttds-Nle-[Cys-(3MeBn)-Pro-Pro-Thr-Glu-Phe-Cys]-OH]	–	7.1 to 8	> 8	–	–
